# Molecular target: CA9^38−414-His-avi (human, UniProt Q16790, biotin (biotinylated))
# Assay: AlphaScreen or HTRF; validation of the AlphaLISA set-up (Figure S6) with tagged G250 against a control library protein; CA9 on the beads at 15 nM or 60 nM
# Conditions: one partner purified
binder,measurement,value
"2E3 tagged Girentuximab (G250) (antibody, V domains shown, tagged versions of Girentuximab (G250); also called anti-CA9; G250 constructs) VH: DVKLVESGGGLVKLGGSLKLSCAASGFTFSNYYMSWVRQTPEKRLELVAAINSDGGITYYLDTVKGRFTISRDNAKNTLYLQMSSLKSEDTALFYCARHRSGYFSMDYWGQGTSVTVSS VL: DIVMTQSQRFMSTTVGDRVSITCKASQNVVSAVAWYQQKPGQSPKLLIYSASNRYTGVPDRFTGSGSGTDFTLTISNMQSEDLADFFCQQYSNYPWTFGGGTKLEIK",binding result,binds

# — PMC11674933, “Discovery of Carbonic Anhydrase 9 as a Novel CLEC2 Ligand in a Cellular Interactome Screen” (Cells, 2024)
